The source of these data is article PMC10109501 (PLOS Pathogens, 2023).

This test deals with SARS-CoV-2 original 2019-CoV Spike, prefusion trimeric ectodomain (2P, GSAS, T4 foldon) (SARS-CoV-2, UniProt P0DTC2 14-1213). As to the kind of experiment: BLI. The note with it: both partners purified.

B1: cat ACE2-Fc (residues 19-615, mouse IgG2a Fc fusion) (Fc fusion)
chain: STTEELAKTFLEKFNHEAEELSYQSSLASWNYNTNITDENVQKMNEAGAKWSAFYEEQSKLAKTYPLAEIHNTTVKRQLQALQQSGSSVLSADKSQRLNTILNAMSTIYSTGKACNPNNPQECLLLEPGLDDIMENSKDYNERLWAWEGWRAEVGKQLRPLYEEYVALKNEMARANNYEDYGDYWRGDYEEEWTDGYNYSRSQLIKDVEHTFTQIKPLYQHLHAYVRAKLMDTYPSRISPTGCLPAHLLGDMWGRFWTNLYPLTVPFGQKPNIDVTDAMVNQSWDARRIFKEAEKFFVSVGLPNMTQGFWENSMLTEPGDSRKVVCHPTAWDLGKGDFRIKMCTKVTMDDFLTAHHEMGHIQYDMAYAVQPFLLRNGANEGFHEAVGEIMSLSAATPNHLKTIGLLSPGFSEDSETEINFLLKQALTIVGTLPFTYMLEKWRWMVFKGEIPKEQWMQKWWEMKREIVGVVEPVPHDETYCDPASLFHVANDYSFIRYYTRTIYQFQFQEALCRIAKHEGPLHKCDISNSSEAGKKLLQMLTLGKSKPWTLALEHVVGEKKMNVTPLLKYFEPLFTWLKEQNRNSFVGWNTDWRPYAD
On to B1, for which the binding result is “binds”.
